From the nanobody polyreactivity screen of Harvey et al. (2022)

Assay: yeast display, Sf9 membrane polyspecificity reagent, FACS + sequencing; frameworks hold sequencing errors
Method in brief: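 A synthetic nanobody library was expressed on Saccharomyces cerevisiae BJ5465 by galactose induction for 36–48 hours. The library was stained for 1 hour at 4 °C with 10% biotinylated, detergent-solubilized Sf9 membrane reagent and enriched with streptavidin microbeads before FACS. Low and high (top ~1%) gates were set on anti-HA fluorescence for expression and streptavidin fluorescence for reagent binding, and each polyreactivity label reflects the gate of origin.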

Sequence | polyreactivity (PSR sort gate)
QVQLVESGGGLVQARGSLRLSCAASGSIFYRNAMGWYRQAPGKETELVARIDRGGITHYADSVKGRFTISRDNAMNTVYLQMNSLKPEDTAVYYCAARKGYWYPTGHGARRYDYWGQGTQVTVSS | high polyreactivity
QVQLVESGGGLVQARGSLRLSCAASGSTFDLYAMGWYRQAPGKEREFVAAISSSGGTTYNADSVKGRFTSSRDNAKKTVYLQRKSLKPEDTAVYYCAAVRYYESRGGYDYWGQGTQVTVSS | low polyreactivity
QVQLVESGGGLVQARGSLRLSCAASGSTFVTYAMGWYRQAPGKERELVAAITWSGGGTYYADSVKGRFTISRDNAKNTVYLQMNSLKPEDTAVYYCNRPAAVGDEDYWGQGTQVTVSS | low polyreactivity
QVQLVESGGGLVQARGSLRLSCAPSGFIFDVYAMGWYRQAPGKERELVAAISSSGGRTYYADSVKGRFTISRDNAKNTVYLQMNSLKPEDTAVYYCAAKTDSRTKVYTADYWGQGTQVTVSS | high polyreactivity
QVQLVESGGGLVQARGSLRLSCASSGRIFWRYAMRWYSQSPGKERELVAAISRSGGRTYYADSVKGRFTISRDNAKNTVYLQMISLKPEDTAVYYCAAKTGGQPGDYWGQGTQVTVSS | high polyreactivity
QVQLVESGGGLVQARGSLRLSCSSSGSIFASYAMGWYRRAPGKERELVAAISRRAVLTYYADSVKGSFTISRDNAKNTVYLQMNSLKPEDTAVYYCNARGYSGYQRYGYNYWGQGTQVTVSS | high polyreactivity
QVQLVESGGGLVQARGSRRLTCAASGRTFSYYAMGWYLHEPGKERELVAAITSSGGRTTYADSVKGRFTISRDNAKNTVYLQMNSLKPEDTAVYYCNVVRWTLKYGYWGQGTQVTVSS | high polyreactivity
QVQLVESGGGLVQARRSLRLSCAASGSTFVQYAMGWDRQAPGNERELVASISYSTGSSTYYADSVKGRFTISRDNAKTTVYLQMNSLKPEDTAFYECAAGIPKGGWSRPRYYYWGQGTQVTVSS | high polyreactivity
QVQLVESGGGLVQASGSLRLSCAASVRIFFVNAMGWYRQEHGKERELVAAIPSSGGSTYYADSVKGRFTISRDNAKNTVYLQMNSLKPEDTAVYYCNARSWYPYDYWGQGTQVTVSS | low polyreactivity
QVQLVESGGGLVQAVGSIRLSCAASGSIFRKYSIRWNRQAPGKDRELVAAISWSGGGTYYADSVKGRFTISRDNAKNTVYLQMNSLKPEDTAVYYCAADPYWDSKGVYWGQGTQVTVSS | low polyreactivity
QVQLVESGGGLVQAVGSLRLICDASGSTFYKYSMGWYRQAPGKERELVAAITTSGTGTYYADSVKGRFTISRDNAKNTVYLEMNSLKPEDTGVYYCNARIVYRVGVSRMYYWGQGTQVTVSS | high polyreactivity
QVQLVESGGGLVQAVGSLRLSCAASGFTFERNAMGWYRQAPGKARELVATINGSSDSTYYADSVKGRFTISRDKAKNTVYLQMNSLKPEDTAVYYCNADSITEGNSRYSHFDYWGQGTQVTVSS | low polyreactivity
QVQLVESGGGLVQAVGSLRLSCAASGFTFGEYDMGSYRHAPGKERELVAAIDSGGSTYYADSVKRRFTISRDNAKNTVYLQMNSLKPEDTALYYCNADSTYDYYELDYDHWGQGTQVTVSS | low polyreactivity
QVQLVESGGGLVQAVGSLRLSCAASGFTFTNYAMGWSRQAPVKEREFVAAISGTGGSTYYADSVKGRFTISRDNAYNTEYLQMNSLKPEDTAVYYCARRRTYPPGRYYYLGQGTQVTVSS | high polyreactivity
QVQLVESGGGLVQAVGSLRLSCAASGIIFRNYAMGWYRQAPGKEREWVAAISRSGGSTYYADSVKGRFTISRDNAKNTCYLQMNSLKPEDTAVYYCNAAYWAYNGFSYLMDYWGQGTQVTVSS | low polyreactivity
QVQLVESGGGLVQAVGSLRLSCAASGRIFRHNAMGWYRQAPGKEWELVAAISGGGTTYYADSVKGRFTISRDNAKNTVYLQMNSLKPEDTAVYYCAARRRGSVGVGYAYAYYYWGQGTQVTVSS | high polyreactivity

Sequence | polyreactivity (PSR sort gate)
QVQLVESGGGLVQAVGSLRLSCAASGRILYWYAMGWYRQAPGKERELVAAINHGDTSTYYADSVKGRFTISRDNAKNTVYLQMNSLIPEDTAVYYCNVRSYVYSRWYQSTWGYYYWGQGTQVTVSS | high polyreactivity
QVQLVESGGGLVQAVGSLRLSCAASGRTFGTYAMGWYRQAPGKERELVAAISSGGSTYADSVKGRFTISRDNAKNTVYLQMNSLKPEDTAVYYCNNVRRKQSVLTFDYWGQGTQVTVSS | high polyreactivity
QVQLVESGGGLVQAVGSLRLSCAASGSIFRKYVMGWYRQAPGKERELVAVISSGTGTYYADSVKGRFTISRDNAKNSVYLQMNSLKPEDTAVYYCAAKYFGKWYKYYYWGQGTQVTVSS | high polyreactivity
QVQLVESGGGLVQAVGSLRLSCAASGSTFDIYAMGWYRQAPGKERELVAAITSGGSTYADSVKGRFTISRDNAKNTVYLQMNSLKPEDTAVYYCNADRWFGNYLHLSFLNDYWGQGNQVTVSS | low polyreactivity
QVQLVESGGGLVQAVGSLRLSCAASGSTFRGYTMGWYRQEPGKERELVSAINWSGGDTYYADSVKGRFTISRDNAKNTVYLQMNSLKPEDTAVYYCNTRHTYPQSFILRRDYWGQGTQVTVSS | low polyreactivity
QVQLVESGGGLVQAVGSLRLSFAASGFTFWYYPMGWYRQAPGKERELLAAITSSGGSTYYADSEKGRFTISRDYAKITVYLQMNSLKPEDTAVYYCAAGAPYRYYYCGQGTQVTVSS | high polyreactivity
QVQLVESGGGLVQAVGSLSLSCAASGLTLGSYAKGAYRQAPGKERELVAAISRRSGRTYYADSVKGLFTISRDNAKNTVYLQINSLKPEDTAGFYCNRGYTAQVYTEFDYWGQGTQVTVSS | low polyreactivity
QVQLVESGGGLVQEGGSLRISCAASGRIFYYYVMGGYRQAPGKERELVAGITSRGRTYYADSVKGRFTISRDNAKNTVYLQMNSLKPEVTAVYDCNKVGATWRQWFGYWGQGTQVTVSS | high polyreactivity
QVQLVESGGGLVQEGGSLRLICAASGSILGSNAMGWYRQAPGKEREFVAAITWTGGSTYYADSVKGRFTISRDNAKNTVYLQMNSLKREDTAVYYCAKDVKYVKMDYWGQGTQVTVSS | low polyreactivity
QVQLVESGGGLVQEGGSLRLSCAASGFIFDGNAMGWYRQAPGKERELVAAMSWDGGTYYADSVKGRFTISRDNAKNTVYLQMNSLKPEDTAVYYCAAEQTQLYSFGWDEYWGQGTQVTVSS | low polyreactivity
QVQLVESGGGLVQEGGSLRLSCAASGFIFSSNDMGWYRQPPGKERELVAVISRSGGRTYYADSVKGRFTISRDNAKNTVYLQMNSLKPEDTSVYYCNKKDRLGHSGRDYWGQGTQVTVSS | high polyreactivity
QVQLVESGGGLVQEGGSLRLSCAASGFIVSYYTMGWYRQAPGKERELVAAIRSSGGSTYADSVKGRFTISRDNAKNTVYLQMNSLKPEDTAVYYCAAVQTWRWVYARDYWGQGTQVTVSS | high polyreactivity
QVQLVESGGGLVQEGGSLRLSCAASGFTIRTYAMGWYRQAPGKERELVAAINTGGGTNYADSVKGRFTISRDNAKNTVYLQMNSLKPEDTAVYYCNSVHYYYYYWYSLYDSWGKGTQVTVSS | high polyreactivity
QVQLVESGGGLVQEGGSLRLSCAASGGIFGWYAMGWYRQAPGKERELVATITWRGGRTYYADSVKGRFTISRDNEKNTVYLQMNSLKPEDTAVYYCNAEWLWYDAGYRYTIRDSWGQGTQVTVSS | low polyreactivity
QVQLVESGGGLVQEGGSLRLSCAASGGTFYNYAMGWYRQAPGKERELVAAITYSGGITYYADSVKGRFTISRDNAKNTVYLQMNRLKPEDTAVYYCAADGYGNYDQYGYWGQGTQVTVSS | low polyreactivity
